Source: patent publication US20200079833A1 (AstraZeneca / MedImmune, published 2020)
Starred links: 1 amine or outer side, 2 acyl side, 3 side chain; linkers in the order of their positions; H or OH if unused. Non-standard residues stand in square brackets, D forms with d. Groups on a side chain read outwards from the residue. No end group written: not given here. *: point of attachment. γGlu = O=C(O)[C@H](CCC(=O)[*:2])N[*:1]; Palmitoyl = CCCCCCCCCCCCCCCC(=O)*; αMeF = C[C@](N)(Cc1ccccc1)C(=O)O; αMeK = C[C@](N)(CCCCN)C(=O)O; αMeS = C[C@](N)(CO)C(=O)O; Aib = CC(C)(N)C(=O)O

B1: SEQ ID NO 86 (peptide)
peptide: H[Aib]EGS[αMeF]TSDV[αMeS]S[αMeF]K([γGlu-Palmitoyl])EGEAA[αMeK]E[αMeF]IA[αMeF]VV[αMeK]GG-NH2
modifications: N-terminus assumed
SMILES: CCCCCCCCCCCCCCCC(=O)N[C@@H](CCC(=O)NCCCC[C@H](NC(=O)[C@](C)(Cc1ccccc1)NC(=O)[C@H](CO)NC(=O)[C@](C)(CO)NC(=O)[C@@H](NC(=O)[C@H](CC(=O)O)NC(=O)[C@H](CO)NC(=O)[C@@H](NC(=O)[C@](C)(Cc1ccccc1)NC(=O)[C@H](CO)NC(=O)CNC(=O)[C@H](CCC(=O)O)NC(=O)C(C)(C)NC(=O)[C@@H](N)Cc1c[nH]cn1)[C@@H](C)O)C(C)C)C(=O)N[C@@H](CCC(=O)O)C(=O)NCC(=O)N[C@@H](CCC(=O)O)C(=O)N[C@@H](C)C(=O)N[C@@H](C)C(=O)N[C@@](C)(CCCCN)C(=O)N[C@@H](CCC(=O)O)C(=O)N[C@@](C)(Cc1ccccc1)C(=O)N[C@H](C(=O)N[C@@H](C)C(=O)N[C@@](C)(Cc1ccccc1)C(=O)N[C@H](C(=O)N[C@H](C(=O)N[C@@](C)(CCCCN)C(=O)NCC(=O)NCC(N)=O)C(C)C)C(C)C)[C@@H](C)CC)C(=O)O
B2: SEQ ID NO 88 (peptide)
peptide: HXEGSFTSDVSKFLEGEAAKEFIAFVVKGG
modifications: Aib2; α-MeF6; α-MeS11; K12(ε-γE-Palmitoyl); α-MeF13; α-MeK20; α-MeF22; α-MeF25; α-MeK28; C-terminal amide
B3: SEQ ID NO 87 (peptide)
peptide: H[Aib]EGS[αMeF]TSDV[αMeS]SK([γGlu-Palmitoyl])LEGEAA[αMeK]E[αMeF]IA[αMeF]VV[αMeK]GG-NH2
modifications: N-terminus assumed
SMILES: CCCCCCCCCCCCCCCC(=O)N[C@@H](CCC(=O)NCCCC[C@H](NC(=O)[C@H](CO)NC(=O)[C@](C)(CO)NC(=O)[C@@H](NC(=O)[C@H](CC(=O)O)NC(=O)[C@H](CO)NC(=O)[C@@H](NC(=O)[C@](C)(Cc1ccccc1)NC(=O)[C@H](CO)NC(=O)CNC(=O)[C@H](CCC(=O)O)NC(=O)C(C)(C)NC(=O)[C@@H](N)Cc1c[nH]cn1)[C@@H](C)O)C(C)C)C(=O)N[C@@H](CC(C)C)C(=O)N[C@@H](CCC(=O)O)C(=O)NCC(=O)N[C@@H](CCC(=O)O)C(=O)N[C@@H](C)C(=O)N[C@@H](C)C(=O)N[C@@](C)(CCCCN)C(=O)N[C@@H](CCC(=O)O)C(=O)N[C@@](C)(Cc1ccccc1)C(=O)N[C@H](C(=O)N[C@@H](C)C(=O)N[C@@](C)(Cc1ccccc1)C(=O)N[C@H](C(=O)N[C@H](C(=O)N[C@@](C)(CCCCN)C(=O)NCC(=O)NCC(N)=O)C(C)C)C(C)C)[C@@H](C)CC)C(=O)O

Each binder was assayed against T1, GLP-1R (INS1e assay) (UniProt P32301 22-463, limits assumed) (assay: cell-based or functional assay).
T1 sequence (looked up): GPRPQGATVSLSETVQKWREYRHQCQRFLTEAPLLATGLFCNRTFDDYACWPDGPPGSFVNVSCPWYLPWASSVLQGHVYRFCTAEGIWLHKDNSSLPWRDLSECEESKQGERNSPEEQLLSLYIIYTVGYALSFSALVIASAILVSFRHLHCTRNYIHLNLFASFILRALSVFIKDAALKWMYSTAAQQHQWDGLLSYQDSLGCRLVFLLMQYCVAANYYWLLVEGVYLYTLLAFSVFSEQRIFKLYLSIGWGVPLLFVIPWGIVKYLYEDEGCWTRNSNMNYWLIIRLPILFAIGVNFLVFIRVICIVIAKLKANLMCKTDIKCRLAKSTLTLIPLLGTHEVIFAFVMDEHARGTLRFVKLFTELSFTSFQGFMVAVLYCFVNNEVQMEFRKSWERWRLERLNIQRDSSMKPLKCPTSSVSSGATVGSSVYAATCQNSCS

| Binder | INS1e assay EC50 GLP-1 R n1 [nM] | INS1e assay EC50 GLP-1 R n2 [nM] | INS1e assay EC50 Mean pM GLP-1R [pM] |
| --- | --- | --- | --- |
| B1 | 0.0453 | 0.0845 | 65 |
| B2 | 0.277 | 0.415 | 346 |
| B3 | 0.0436 | 0.0622 | 53 |
